These results are taken from doi:10.1101/2023.09.10.557050 (bioRxiv, 2023).

As a reminder, the stoichiometry N is the number of molecules, sites or subunits per partner or assembly.

Like-named read-outs stand apart in the source and are kept apart here.

Assay in all cases: cryo-EM structure
Data set [1] deals with the molecule itself.
Data set [2] deals with the molecule itself. This is another data set of the same source.
The target in data set [3] is T1, EcNhaA WT-like triple mutant (A109T, Q277G, L296M) (E. coli), P13738.
T1 chain: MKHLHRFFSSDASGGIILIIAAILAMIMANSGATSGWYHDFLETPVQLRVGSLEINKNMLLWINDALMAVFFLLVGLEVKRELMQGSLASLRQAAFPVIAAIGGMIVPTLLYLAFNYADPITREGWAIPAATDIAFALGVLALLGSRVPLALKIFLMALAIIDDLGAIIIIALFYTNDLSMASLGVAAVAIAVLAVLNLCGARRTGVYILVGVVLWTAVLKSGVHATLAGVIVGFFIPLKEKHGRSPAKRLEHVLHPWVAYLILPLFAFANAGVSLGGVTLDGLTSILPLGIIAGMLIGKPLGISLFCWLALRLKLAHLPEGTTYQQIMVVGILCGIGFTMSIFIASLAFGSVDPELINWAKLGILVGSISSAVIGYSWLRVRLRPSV
To be noted: remark: other sources report otherwise.

B1: horse NHE9* (residues 8 to 575), tag removed (domain or fragment, UniProt F7B113 8-575, looked up)
chain: MSEKDEYQFQHQGAVELLVFNFLLILTILTIWLFKNHRFRFLHETGGAMVYGLIMGLILRYATAPTDIESGTVYDCGKLAFSPSTLLINITDQVYEYKYKREISQHNINPHLGNAILEKMTFDPEIFFNVLLPPIIFHAGYSLKKRHFFQNLGSILTYAFLGTAISCIVIGLIMYGFVKAMVYAGQLKNGDFHFTDCLFFGSLMSATDPVTVLAIFHELHVDPDLYTLLFGESVLNDAVAIVLTYSISIYSPKENPNAFDAAAFFQSVGNFLGIFAGSFAMGSAYAVVTALLTKFTKLCEFPMLETGLFFLLSWSAFLSAEAAGLTGIVAVLFCGVTQAHYTYNNLSLDSKMRTKQLFEFMNFLAENVIFCYMGLALFTFQNHIFNALFILGAFLAIFVARACNIYPLSFLLNLGRKHKIPWNFQHMMMFSGLRGAIAFALAIRDTESQPKQMMFSTTLLLVFFTVWVFGGGTTPMLTWLQIRVGVDLDEDLKERPSSHQEANNLEKSTTKTESAWLFRMWYGFDHKYLKPILTHSGPPLTTTLPEWCGPISRLLTSPQAYGEQLKED
With B1, the “stoichiometry N” value in data set [1] came to 2.

B2: horse NHE9*CC (L139C-I444C double mutant), tag removed (domain or fragment, UniProt F7B113 8-575, looked up)
chain: MSEKDEYQFQHQGAVELLVFNFLLILTILTIWLFKNHRFRFLHETGGAMVYGLIMGLILRYATAPTDIESGTVYDCGKLAFSPSTLLINITDQVYEYKYKREISQHNINPHLGNAILEKMTFDPEIFFNVLCPPIIFHAGYSLKKRHFFQNLGSILTYAFLGTAISCIVIGLIMYGFVKAMVYAGQLKNGDFHFTDCLFFGSLMSATDPVTVLAIFHELHVDPDLYTLLFGESVLNDAVAIVLTYSISIYSPKENPNAFDAAAFFQSVGNFLGIFAGSFAMGSAYAVVTALLTKFTKLCEFPMLETGLFFLLSWSAFLSAEAAGLTGIVAVLFCGVTQAHYTYNNLSLDSKMRTKQLFEFMNFLAENVIFCYMGLALFTFQNHIFNALFILGAFLAIFVARACNIYPLSFLLNLGRKHKIPWNFQHMMMFSGLRGACAFALAIRDTESQPKQMMFSTTLLLVFFTVWVFGGGTTPMLTWLQIRVGVDLDEDLKERPSSHQEANNLEKSTTKTESAWLFRMWYGFDHKYLKPILTHSGPPLTTTLPEWCGPISRLLTSPQAYGEQLKED
In the case of B2, in data set [2], the “stoichiometry N” value is 2.

B3: EcNhaA WT-like triple mutant (A109T, Q277G, L296M), P13738 1-388 (natural protein)
chain: MKHLHRFFSSDASGGIILIIAAILAMIMANSGATSGWYHDFLETPVQLRVGSLEINKNMLLWINDALMAVFFLLVGLEVKRELMQGSLASLRQAAFPVIAAIGGMIVPTLLYLAFNYADPITREGWAIPAATDIAFALGVLALLGSRVPLALKIFLMALAIIDDLGAIIIIALFYTNDLSMASLGVAAVAIAVLAVLNLCGARRTGVYILVGVVLWTAVLKSGVHATLAGVIVGFFIPLKEKHGRSPAKRLEHVLHPWVAYLILPLFAFANAGVSLGGVTLDGLTSILPLGIIAGMLIGKPLGISLFCWLALRLKLAHLPEGTTYQQIMVVGILCGIGFTMSIFIASLAFGSVDPELINWAKLGILVGSISSAVIGYSWLRVRLRPSV
The molecule B3 displayed a stoichiometry N in data set [3] of 2.
